Results on 2 molecules are retold here after paper PMC9772228, “Structure of a RecT/Redβ family recombinase in complex with a duplex intermediate of DNA annealing”.

Changes are numbered by the printed parent chain.

The target in one data set is T1, LiRecT K191A/F194A (Listeria innocua CLIP 11262, UniProt Q92FL9 1-271, K191A;F194A).
T1 sequence: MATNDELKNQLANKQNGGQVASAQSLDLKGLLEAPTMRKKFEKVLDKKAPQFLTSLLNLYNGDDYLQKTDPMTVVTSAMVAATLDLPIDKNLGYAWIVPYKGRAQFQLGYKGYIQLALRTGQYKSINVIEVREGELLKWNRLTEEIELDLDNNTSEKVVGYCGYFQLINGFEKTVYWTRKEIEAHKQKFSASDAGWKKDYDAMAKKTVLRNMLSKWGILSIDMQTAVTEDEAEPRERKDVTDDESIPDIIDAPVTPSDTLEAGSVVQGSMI
As to the kind of experiment: EMSA; EMSA: PBS pH 7.4 (or KH2PO4/10 mM MgCl2 pH 6.0), 3.6 or 5 uM protein, 25 uM nt DNA, 37 C 15 min per strand, 0.8% agarose 1x TBE; cryo-EM: 20 mM KH2PO4 (Results: 10 mM), 10 mM MgCl2 pH 6.0, 37 C; native MS: 100 mM ammonium acetate pH 7, 37 C. The conditions noted are these: protein: recombinant, tags: N-terminal 6His vector tag (20 aa) retained, chain copies: 10, single strand. (A gel shift assay detects complexes by their altered migration in electrophoresis.)

The target of a further data set is T2, LiRecT V98A (Listeria innocua CLIP 11262, UniProt Q92FL9 1-271, V98A).
T2 sequence: T1 sequence with V98A, A191K, A194F
Described as above. The conditions noted are these: protein: recombinant, tags: N-terminal 6His vector tag (20 aa) retained, chain copies: 10, single strand.

CCATCCGCAAAAATCGAGCTATGCAGGGCGATTCTGCTCTAAGCCATCCG (ssDNA) [Cy5-50mer]: the binding result with LiRecT K191A/F194A (label: 5'-Cy5) and with LiRecT V98A (label: 5'-Cy5) was “binds” in each case.

As to GCGGATGGCTTAGAGCAGAATCGCCCTGCATAGCTCGATTTTTGCGGATG (ssDNA) [Cy3-50mer], the binding result in the data set with LiRecT K191A/F194A (label: 5'-Cy3) and with LiRecT V98A (label: 5'-Cy3) was “binds” in each case.
